Results on 6 molecules are retold here after patent US20090087428A1 (Genentech, published 2009).

B3: 5A6/22E7 knob in holes, hingeless bispecific antibody (anti-FcγRIIB/anti-FcεRI) (bispecific antibody)
chain 1: EVKLEESGGGLVQPGGSMKLSCVASGFTFSDAWMDWVRQSPERGLEWVAEIRSKPNNHATYYAESVKGRFTISRDDSKSSVYLQMTSLRPEDTGIYYCTHFDYWGQGTTLTVSSAKTTGPSVFPLAPSSKSTSGGTAALGCLVKDYFPEPVTVSWNSGALTSGVHTFPAVLQSSGLYSLSSVVTVPSSSLGTQTYICNVNHKPSNTKVDKKVEPKSCDKTHTSPPSPAPELLGGPSVFLFPPKPKDTLMISRTPEVTCVVVDVSHEDPEVKFNWYVDGVEVHNAKTKPREEQYNSTYRVVSVLTVLHQDWLNGKEYKCKVSNKALPAPIEKTISKAKGQPREPQVYTLPPSRDELTKNQVSLWCLVKGFYPSDIAVEWESNGQPENNYKTTPPVLDSDGSFFLYSKLTVDKSRWQQGNVFSCSVMHEALHNHYTQKSLSLSPEL
chain 2: DIQMTQSPSSLSASLGERVSLTCRASQEISGYLSWFQQKPDGTIKRLIYAASALDSGVPKRFSGSWSGSDYSLTISSLESEDFADYYCLQYVSYPLTFGAGTKLELKRTVAAPSVFIFPPSDEQLKSGTASVVCLLNNFYPREAKVQWKVDNALQSGNSQESVTEQDSKDSTYSLSSTLTLSKADYEKHKVYACEVTHQGLSSPVTKSFNRGEC
chain 3: EVKLVESGGGLVKPGGSLKLSCAASGFTFSSYGMSWVRQTPEKRLEWVATISGGNNYTFYPDNLKGRFTISRDNAKNILYLQISSLRSVDTALYYCASLWYRASFAYWGQGTLVTVSSAKTTGPSVFPLAPSSKSTSGGTAALGCLVKDYFPEPVTVSWNSGALTSGVHTFPAVLQSSGLYSLSSVVTVPSSSLGTQTYICNVNHKPSNTKVDKKVEPKSCDKTHTSPPSPAPELLGGPSVFLFPPKPKDTLMISRTPEVTCVVVDVSHEDPEVKFNWYVDGVEVHNAKTKPREEQYNSTYRVVSVLTVLHQDWLNGKEYKCKVSNKALPAPIEKTISKAKGQPREPQVYTLPPSRDELTKNQVSLSCAVKGFYPSDIAVEWESNGQPENNYKTTPPVLDSDGSFFLVSKLTVDKSRWQQGNVFSCSVMHEALHNHYTQKSLSLSPEL
chain 4: DIMMTQSPSSMYASLGERVTITCKASQDINSYLSWFQQKPGKSPKTLISRANRLVDGVPSRFSGSGSGQDYSLTISSLEYEDMGIYYCLQYDDFPFTFGGGTKVEIKRTVAAPSVFIFPPSDEQLKSGTASVVCLLNNFYPREAKVQWKVDNALQSGNSQESVTEQDSKDSTYSLSSTLTLSKADYEKHKVYACEVTHQGLSSPVTKSFNRGEC

Values joined by “and” are separate entries in the source; they are usually repeats but may differ in a detail not shown here. Identical values can stand only once.

Assay [1] addresses T1, GST-huFcγRIIB (human FcγRIIB extracellular domain-Gly-His6-GST fusion protein) (human, UniProt P08515 1-218 = GST).
T1 construct: Expressed in 293 cells; also called FcγRIIB-His6-GST; huFcγRIIB-His6-GST
As to the kind of experiment: sandwich (bridging) ELISA, FIG. 29: plate FcγRIIB-His6-GST, antibody titrated, then huFcεRI-ECD-Fc and IgE-biotin/streptavidin-HRP; signal needs both arms. A general note: ELISA stands for enzyme-linked immunosorbent assay.

For assay [2], the target named is T2, huFcεRI-ECD-Fc (IgE receptor fusion) (human, UniProt P12319 26-205).
T2 construct: extracellular domain; not shown: Fc part
T2 sequence (looked up): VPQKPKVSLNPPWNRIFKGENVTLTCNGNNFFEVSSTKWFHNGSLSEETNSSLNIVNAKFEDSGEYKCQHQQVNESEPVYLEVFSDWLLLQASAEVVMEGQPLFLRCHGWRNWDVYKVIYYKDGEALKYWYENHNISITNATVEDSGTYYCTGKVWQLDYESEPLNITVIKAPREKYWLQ
As to the kind of experiment: sandwich (bridging) ELISA, FIG. 30: plate huFcεRI-ECD-Fc, antibody titrated, then FcγRIIB-His6-GST and anti-GST-biotin/streptavidin-HRP; signal needs both arms. The method, then:
ELISA plates were coated overnight at 4° C. with 100 μl of a 1 μg/ml solution of huFcεRI-ECD-Fc in PBS, pH 7.4. The plate was washed with PBS and blocked with 1% Casein blocker in PBS. The wells were washed three times with PBS/0.05% TWEEN®. Serial dilutions of 5A6/22E7 bispecific antibodies, 5A6 antibodies, or 22E7 antibody were prepared in ELISA Diluent buffer and added to wells at 100 μl/well of each dilution. The plates were incubated for 1 hour at room temperature. After washing the plate three times with PBS/0.05% TWEEN®, FcγRIIB-His₆-GST was added to each well at 100 μl of 1 μg/ml in the presence of 10 μg/ml of CD4-IgG to block FcγRIIB-His₆-GST binding to Fc portion of the test antibody, huFcεRI-ECD-Fc and secondary antibody (anti-GST-biotin) and incubated for 1 hour at room temperature. After washing the plate three times with PBS/0.05% TWEEN®, 100 μl of 1 μg/ml anti-GST-biotin was added to each well and incubated for 1 hour at room temperature. The plate was washed with PBS/0.05% TWEEN® and incubated 30 minutes with 100 μl/well of 1:2000 Streptavidin-HRP in Elisa diluent buffer. After washing with PBS/0.05% TWEEN®, the plate was incubated 5 minutes with 100 μl TMB substrate. The reaction was quenched with 100 μl/well stop solution and the plate read at 630 nm. […]

Assay [3] deals with T3, native human FcγRIIA (CD32A) on K562 erythroleukemia cells (human, UniProt P12318 34-317).
T3 construct: also called huFcγRIIA (CD32A); native FcγRIIA
T3 sequence: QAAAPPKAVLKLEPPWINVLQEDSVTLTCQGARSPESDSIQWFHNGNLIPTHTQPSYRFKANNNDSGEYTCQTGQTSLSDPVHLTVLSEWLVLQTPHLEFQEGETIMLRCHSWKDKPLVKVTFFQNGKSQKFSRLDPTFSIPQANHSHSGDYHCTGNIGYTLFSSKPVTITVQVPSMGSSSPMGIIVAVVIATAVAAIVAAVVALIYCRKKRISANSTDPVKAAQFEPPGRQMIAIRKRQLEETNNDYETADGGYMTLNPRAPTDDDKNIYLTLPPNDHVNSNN
Description: indirect immunofluorescence, flow cytometry on K562 cells (FIG. 16). An excerpt: Indirect immunofluorescence binding analysis of 5A6 MAb to native FcγRIIA expressed on K562 erythroleukemia cells (ATCC No. CCL-243) is presented in FIG. 16. Separated aliquots of K562 cells were stained with either a mIgG1 isotype control (mopc 21), 5A6 (anti-human FcγRIIB) monoclonal antibody or Medarex 4.3 MAb (anti-human FcγRIIA/B) monoclonal antibody.
Background: A flow cytometer gives signals particle by particle.

The target in assay [4] is T1, GST-huFcγRIIB (human FcγRIIB …). Description: ELISA, plate-coated GST fusion (FIG. 6).
The target of assay [5] is B3. Description: flow cytometry, RBL huFcεRI+huFcγRIIB1 and +huFcγRIIB2 cells (FIGS. 40, 41).
Assay [6] has as its target T2, huFcεRI-ECD-Fc (IgE receptor fusion). As to the kind of experiment: sandwich (bridging) ELISA, FIG. 30: plate huFcεRI-ECD-Fc, antibody titrated, then FcγRIIB-His6-GST and anti-GST-biotin/streptavidin-HRP; signal needs both arms, so the value does not measure 22E7 on FcεRI alone.

B1: 5A6/22E7 knob in holes, wild type hinge, bispecific antibody (bispecific antibody)
chain 1: EVKLEESGGGLVQPGGSMKLSCVASGFTFSDAWMDWVRQSPERGLEWVAEIRSKPNNHATYYAESVKGRFTISRDDSKSSVYLQMTSLRPEDTGIYYCTHFDYWGQGTTLTVSSAKTTGPSVFPLAPSSKSTSGGTAALGCLVKDYFPEPVTVSWNSGALTSGVHTFPAVLQSSGLYSLSSVVTVPSSSLGTQTYICNVNHKPSNTKVDKKVEPKSCDKTHTCPPCPAPELLGGPSVFLFPPKPKDTLMISRTPEVTCVVVDVSHEDPEVKFNWYVDGVEVHNAKTKPREEQYNSTYRVVSVLTVLHQDWLNGKEYKCKVSNKALPAPIEKTISKAKGQPREPQVYTLPPSRDELTKNQVSLWCLVKGFYPSDIAVEWESNGQPENNYKTTPPVLDSDGSFFLYSKLTVDKSRWQQGNVFSCSVMHEALHNHYTQKSLSLSPEL
chain 2: DIQMTQSPSSLSASLGERVSLTCRASQEISGYLSWFQQKPDGTIKRLIYAASALDSGVPKRFSGSWSGSDYSLTISSLESEDFADYYCLQYVSYPLTFGAGTKLELKRTVAAPSVFIFPPSDEQLKSGTASVVCLLNNFYPREAKVQWKVDNALQSGNSQESVTEQDSKDSTYSLSSTLTLSKADYEKHKVYACEVTHQGLSSPVTKSFNRGEC
chain 3: not shown
chain 4: DIMMTQSPSSMYASLGERVTITCKASQDINSYLSWFQQKPGKSPKTLISRANRLVDGVPSRFSGSGSGQDYSLTISSLEYEDMGIYYCLQYDDFPFTFGGGTKVEIKRTVAAPSVFIFPPSDEQLKSGTASVVCLLNNFYPREAKVQWKVDNALQSGNSQESVTEQDSKDSTYSLSSTLTLSKADYEKHKVYACEVTHQGLSSPVTKSFNRGEC
As to B1, the IC50 (commonly the midpoint of a concentration-inhibition curve) is 0.0552 µg/mL and 0.076 µg/mL in assay [1]; 0.49 µg/mL and 0.291 µg/mL in assay [2].

B2: Antibody 5A6.2.1 (anti-human FcγRIIB monoclonal antibody) (antibody)
VH: EVKLEESGGGLVQPGGSMKLSCVASGFTFSDAWMDWVRQSPERGLEWVAEIRSKPNNHATYYAESVKGRFTISRDDSKSSVYLQMTSLRPEDTGIYYCTHFDYWGQGTTLTVSSAKTTGPSVFPLAPSSKSTSGGTAALGCLVKDYFPEPVTVSWNSGALTSGVHTFPAVLQSSGLYSLSSVVTVPSSSLGTQTYICNVNHKPSNTKVDKKVEPKSCDKTHT
VL: DIQMTQSPSSLSASLGERVSLTCRASQEISGYLSWFQQKPDGTIKRLIYAASALDSGVPKRFSGSWSGSDYSLTISSLESEDFADYYCLQYVSYPLTFGAGTKLELKRTVAAPSVFIFPPSDEQLKSGTASVVCLLNNFYPREAKVQWKVDNALQSGNSQESVTEQDSKDSTYSLSSTLTLSKADYEKHKVYACEVTHQGLSSPVTKSFNRGEC
notes: 5A6(A) and 5A6(B) are two protein preps of 5A6; also called 5A6 MAb; 5A6 mIgG1
As for B2, the binding result in assay [3] was “no binding”. The EC50 – broadly, the concentration giving half of the maximal effect – in assay [4] is 0.06 nM. For the molecule B3, the IC50 amounted to 0.023 µg/mL in assay [1] and 0.0765 µg/mL in assay [2].

B4: huFcεRIα extracellular domain (huFcεRIα ECD) (receptor, human, UniProt P12319 26-205, looked up)
chain: VPQKPKVSLNPPWNRIFKGENVTLTCNGNNFFEVSSTKWFHNGSLSEETNSSLNIVNAKFEDSGEYKCQHQQVNESEPVYLEVFSDWLLLQASAEVVMEGQPLFLRCHGWRNWDVYKVIYYKDGEALKYWYENHNISITNATVEDSGTYYCTGKVWQLDYESEPLNITVIKAPREKYWLQ
notes: extracellular domain; also called huFcεRI ECD
B4: the “ECD to bispecific ratio at which binding to cells is decreased (complete blocking only with both ECDs)” value in assay [5] is 10 ratio ECD:bispecific.

B5: huFcγRIIB extracellular domain with C-terminal His6 tag (huFcγRIIB ECD) (receptor)
chain: TPAAPPKAVLKLEPQWINVLQEDSVTLTCRGTHSPESDSIQWFHNGNLIPTHTQPSYRFKANNNDSGEYTCQTGQTSLSDPVHLTVLSEWLVLQTPHLEFQEGETIVLRCHSWKDKPLVKVTFFQNGKSKKFSRSDPNFSIPQANHSHSGDYHCTGNIGYTLYSSKPVTITVQAPHHHHHH
notes: Whole entry named; only the extracellular domain is in the construct; Baculovirus expression
As for B5, the “ECD to bispecific ratio at which binding to cells is decreased (complete blocking only with both ECDs)” value in assay [5] is 10 ratio ECD:bispecific.

B6: 22E7 MAb (anti-human FcεRI monoclonal antibody) (antibody)
chain 1: EVKLVESGGGLVKPGGSLKLSCAASGFTFSSYGMSWVRQTPEKRLEWVATISGGNNYTFYPDNLKGRFTISRDNAKNILYLQISSLRSVDTALYYCASLWYRASFAYWGQGTLVTVSS
chain 2: DIMMTQSPSSMYASLGERVTITCKASQDINSYLSWFQQKPGKSPKTLISRANRLVDGVPSRFSGSGSGQDYSLTISSLEYEDMGIYYCLQYDDFPFTFGGGTKVEIK
Regarding B6, the IC50 in assay [1] turned out to be 100 µg/mL; in assay [6] it was 2800 µg/mL.
